T1: recombinant full-length DARC325 protein (UniProt Q16570 1-325)
T1 chain: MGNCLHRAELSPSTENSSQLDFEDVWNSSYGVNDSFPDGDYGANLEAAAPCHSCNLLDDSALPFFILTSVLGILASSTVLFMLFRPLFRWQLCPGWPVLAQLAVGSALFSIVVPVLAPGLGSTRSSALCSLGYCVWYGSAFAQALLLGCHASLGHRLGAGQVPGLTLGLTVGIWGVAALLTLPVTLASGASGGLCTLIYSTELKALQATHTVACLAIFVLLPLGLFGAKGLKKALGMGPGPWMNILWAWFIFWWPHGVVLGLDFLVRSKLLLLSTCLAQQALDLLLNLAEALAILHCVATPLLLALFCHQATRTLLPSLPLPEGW

B1: DARCVHH (VHH)
VHH: QVQLQESGGGSVQAGGSLRLSCAASGYAFSSYCMAWFRQVPGKEREGVASINSDGERRGYADSVKGRFTVSRDNAKNTVYLQMNSLKPEDTAIYYCAAKRVVGGRYCGGGVSSWGQGTQVTVSS
B2: DARCVHH-EBV P18F4 (VHH)
VHH: B1 VHH
B3: VAR2CSAVHH (VHH)
VHH: QVQLQESGGGLVQAGGSLRLSCAFSGSIFKMGWFRQAPGKEREFVAAIRWSGGSTYYADSVKGRFTISRDNAKNTVYLQMDSLKPEDTAVYYCAATWDLAGWNTVDEYDYWGQGTQVTVSS

Key:
[1] = target: T1, recombinant full-length DARC325 protein; test: SPR
[2] = target: recombinant full-length VAR2CSA (3D7-DBL1X-6ε) (Plasmodium falciparum (3D7)); test: SPR

| Binder | Kd [1] | Kd [2] |
| --- | --- | --- |
| B1 | 90 pM |  |
| B2 | 56.5 pM |  |
| B3 |  | 486 pM |

Reference: patent publication US20180360950A1 (published 2018)
